± gives the standard error. Variants at the floor of the assay were thinned out.
B1: glmS ribozyme (parent)
chain: AUAAAAGCGCCAGAACUACAGAAAUGUAGUUGACGAGGAGGAGGUUUAUCGAAUUUUCGGCGGAUGCCUCCAAA

What was measured:
Details in all cases: with glucosamine-6-phosphate
glucosamine-6-phosphate [1] = variants of: B1; assay: self-cleavage kobs at 640 uM GlcN6P; higher = faster cleavage; RNA array
In short: (§1)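 Ribozyme variants carrying barcodes were transcribed in situ on sequenced MiSeq chips by E. coli RNA polymerase and tracked at 37 °C with a hybridised Cy3 probe. They were exposed to 40 μM to 10 mM glucosamine-6-phosphate in HEPES/KCl/Mg(OAc)2 buffer. kobs came from exponential decay fits of normalised per-tile medians, and kcat and KM from weighted Michaelis–Menten fits.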

glucosamine-6-phosphate [2] = variants of: B1; assay: self-cleavage kobs at 2500 uM GlcN6P; higher = faster cleavage; RNA array
In short: as §1

glucosamine-6-phosphate [3] = variants of: B1; assay: self-cleavage kobs at 10000 uM GlcN6P; higher = faster cleavage; RNA array
In short: as §1

| Variant | self-cleavage kobs at 640 uM GlcN6P (glucosamine-6-phosphate [1]) | self-cleavage kobs at 2500 uM GlcN6P (glucosamine-6-phosphate [2]) | self-cleavage kobs at 10000 uM GlcN6P (glucosamine-6-phosphate [3]) |
| --- | --- | --- | --- |
| G7U C58G | < 1e-05 s⁻¹ |  |  |
| A33G G43U C70G | < 1e-05 s⁻¹ |  |  |
| C10G C58U G63U | < 1e-05 s⁻¹ |  |  |
| A36U G40U A42G | < 1e-05 s⁻¹ |  |  |
| C10U A12U C50U C70U | 0.000161 ± 6.4e-05 s⁻¹ |  |  |
| A53G G66C C71G | 8.43e-05 ± 2.2e-05 s⁻¹ |  |  |
| U30G A39C U55G | 0.000198 ± 5.5e-05 s⁻¹ | 0.000726 ± 0.00014 s⁻¹ | 0.00144 ± 0.00047 s⁻¹ |
| A39C U46A U56G | 4.61e-05 ± 1.8e-05 s⁻¹ |  |  |
| U31A G32C G60A G66A | < 1e-05 s⁻¹ |  |  |
| C10A U49C | < 1e-05 s⁻¹ |  |  |
| C16U G32U A36C C58U | < 1e-05 s⁻¹ |  |  |
| G32C G44U A64C | < 1e-05 s⁻¹ |  | < 1e-05 s⁻¹ |
| G44U A53G U65C | < 1e-05 s⁻¹ |  |  |
| A36U C61U C71U | < 1e-05 s⁻¹ |  | < 1e-05 s⁻¹ |
| G37A U56G A64U | < 1e-05 s⁻¹ | < 1e-05 s⁻¹ |  |
| A53C U55G C71G | 0.000116 ± 3.1e-05 s⁻¹ |  |  |
| C11A A36U C70G | 0.000284 ± 7e-05 s⁻¹ | 0.000767 ± 0.00032 s⁻¹ |  |
| G35A A39C U47C U56G | < 1e-05 s⁻¹ |  |  |

| Variant | self-cleavage kobs at 640 uM GlcN6P (glucosamine-6-phosphate [1]) | self-cleavage kobs at 2500 uM GlcN6P (glucosamine-6-phosphate [2]) | self-cleavage kobs at 10000 uM GlcN6P (glucosamine-6-phosphate [3]) |
| --- | --- | --- | --- |
| A39U A52G U54G U57C | 3.84e-05 ± 1.7e-05 s⁻¹ | 0.00016 ± 4.9e-05 s⁻¹ |  |
| G32C C70G | 0.000253 ± 8.1e-05 s⁻¹ |  | 2.34e-05 ± 9.6e-06 s⁻¹ |
| A14C G40U U56G U65A C71U | 0.000351 ± 6.7e-05 s⁻¹ | 0.00117 ± 0.00023 s⁻¹ |  |
| A6C A15U G29A A53G | < 1e-05 s⁻¹ |  |  |
| A12C G29A C58G U65G C68G | 0.000168 ± 6e-05 s⁻¹ | 8.36e-05 ± 2.2e-05 s⁻¹ |  |
| A6C U54G C70U | 6.45e-05 ± 2.2e-05 s⁻¹ |  |  |
| G32U G41U G60U C68A | < 1e-05 s⁻¹ |  |  |
| A12C G32U A64G C70U | < 1e-05 s⁻¹ |  |  |
| G9C G29A G62A | < 1e-05 s⁻¹ |  |  |
| A36U G44A G62A C71G | < 1e-05 s⁻¹ | < 1e-05 s⁻¹ |  |
| G13U U31C G43C | < 1e-05 s⁻¹ | < 1e-05 s⁻¹ | < 1e-05 s⁻¹ |
| A6U G43U C61U C71U | < 1e-05 s⁻¹ | < 1e-05 s⁻¹ |  |
| G41U A42U C61A | < 1e-05 s⁻¹ | < 1e-05 s⁻¹ |  |
| G7U G9U G43U | < 1e-05 s⁻¹ | < 1e-05 s⁻¹ |  |
| G9U U54C C68U | < 1e-05 s⁻¹ |  |  |
| G7U A12C U49C | < 1e-05 s⁻¹ |  |  |
| C8U A42U U49G A52G U57G | < 1e-05 s⁻¹ | < 1e-05 s⁻¹ |  |
| A6C G43C C71U | < 1e-05 s⁻¹ |  |  |

— the supplement of paper PMC7125110
